Measurements reported in the supplement of paper PMC9112550, “Optimization of the antimicrobial peptide Bac7 by deep mutational scanning” (BMC Biology, 2022).
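Further: peptides expressed intracellularly from a pBAD plasmid library in pooled LB shake-flask culture, induced with 0.3% L-arabinose, DNA abundance read by NGS, three biological replicates, DESeq2 with apeglm shrinkage.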

These sequences were tested on Escherichia coli TOP10 (assay: shrunken log2 fold change of peptide-encoding DNA abundance (4.5 h post-induction vs induction); higher = less antimicrobial activity (less host growth inhibition)). Details: time post-induction: 4.5 h; library: site-saturation at positions 5, 18, 19, 20.
With RRIRSRPPRLPRPRPRPLMCPRP the “shrunken log2 fold change” value was -0.471. For RRIRSRPPRLPRPRPRPLPPPRP, the “shrunken log2 fold change” value was 0.518. For RRIRSRPPRLPRPRPRPLQMPRP, the “shrunken log2 fold change” value was 0.24. In the case of RRIRSRPPRLPRPRPRPLSQPRP, the “shrunken log2 fold change” value is reported as -0.00748. RRIRSRPPRLPRPRPRPLTWPRP was tested, and the “shrunken log2 fold change” value was -0.104. With RRIRSRPPRLPRPRPRPLVGPRP the “shrunken log2 fold change” value was 0.0355. In the case of RRIRSRPPRLPRPRPRPLVSPRP, the “shrunken log2 fold change” value is reported as 0.208. With RRIRSRPPRLPRPRPRPLVYPRP the “shrunken log2 fold change” value was -0.206. In the case of RRIRSRPPRLPRPRPRPLYEPRP, the “shrunken log2 fold change” value is reported as -0.438. RRIRSRPPRLPRPRPRPLYRPRP was tested, and the “shrunken log2 fold change” value was -0.346. In the case of RRIRSRPPRLPRPRPRPLYVPRP, the “shrunken log2 fold change” value is reported as -0.467. In the case of RRIRSRPPRLPRPRPRPMAHPRP, the “shrunken log2 fold change” value is reported as 0.218. In the case of RRIRSRPPRLPRPRPRPMANPRP, the “shrunken log2 fold change” value is reported as -0.397. In the case of RRIRSRPPRLPRPRPRPMASPRP, the “shrunken log2 fold change” value is reported as 0.088. With RRIRSRPPRLPRPRPRPMCAPRP the “shrunken log2 fold change” value was 0.29. In the case of RRIRSRPPRLPRPRPRPMEDPRP, the “shrunken log2 fold change” value is reported as 0.189. In the case of RRIRSRPPRLPRPRPRPMFAPRP, the “shrunken log2 fold change” value is reported as 0.154. With RRIRSRPPRLPRPRPRPMFDPRP the “shrunken log2 fold change” value was -0.0808. For RRIRSRPPRLPRPRPRPMFQPRP, the “shrunken log2 fold change” value was 0.0483. In the case of RRIRSRPPRLPRPRPRPMGVPRP, the “shrunken log2 fold change” value is reported as -0.084. With RRIRSRPPRLPRPRPRPMHCPRP the “shrunken log2 fold change” value was 0.377. RRIRSRPPRLPRPRPRPMHWPRP was tested, and the “shrunken log2 fold change” value was -0.159. In the case of RRIRSRPPRLPRPRPRPMIAPRP, the “shrunken log2 fold change” value is reported as 0.0435. RRIRSRPPRLPRPRPRPMKGPRP was tested, and the “shrunken log2 fold change” value was -0.311. For RRIRSRPPRLPRPRPRPMLHPRP, the “shrunken log2 fold change” value was -0.424. In the case of RRIRSRPPRLPRPRPRPMLNPRP, the “shrunken log2 fold change” value is reported as -0.198. With RRIRSRPPRLPRPRPRPMLQPRP the “shrunken log2 fold change” value was -0.0416. RRIRSRPPRLPRPRPRPMPQPRP was tested, and the “shrunken log2 fold change” value was 0.126. For RRIRSRPPRLPRPRPRPMQDPRP, the “shrunken log2 fold change” value was 0.125. With RRIRSRPPRLPRPRPRPMQHPRP the “shrunken log2 fold change” value was -0.122. In the case of RRIRSRPPRLPRPRPRPMQNPRP, the “shrunken log2 fold change” value is reported as 0.22. For RRIRSRPPRLPRPRPRPMQPPRP, the “shrunken log2 fold change” value was 0.0538. In the case of RRIRSRPPRLPRPRPRPMQWPRP, the “shrunken log2 fold change” value is reported as -0.145. With RRIRSRPPRLPRPRPRPMSNPRP the “shrunken log2 fold change” value was 0.129. RRIRSRPPRLPRPRPRPMSYPRP was tested, and the “shrunken log2 fold change” value was 0.0443. In the case of RRIRSRPPRLPRPRPRPMTAPRP, the “shrunken log2 fold change” value is reported as -0.0379. With RRIRSRPPRLPRPRPRPMTKPRP the “shrunken log2 fold change” value was 0.0651. With RRIRSRPPRLPRPRPRPMTTPRP the “shrunken log2 fold change” value was 0.572. In the case of RRIRSRPPRLPRPRPRPMVQPRP, the “shrunken log2 fold change” value is reported as 0.13. RRIRSRPPRLPRPRPRPNCFPRP was tested, and the “shrunken log2 fold change” value was 0.0876. For RRIRSRPPRLPRPRPRPNCQPRP, the “shrunken log2 fold change” value was -0.0974. RRIRSRPPRLPRPRPRPNCYPRP was tested, and the “shrunken log2 fold change” value was -0.0528. RRIRSRPPRLPRPRPRPNEMPRP was tested, and the “shrunken log2 fold change” value was -0.252. With RRIRSRPPRLPRPRPRPNFQPRP the “shrunken log2 fold change” value was -0.089. RRIRSRPPRLPRPRPRPNGMPRP was tested, and the “shrunken log2 fold change” value was -0.0245. RRIRSRPPRLPRPRPRPNGYPRP was tested, and the “shrunken log2 fold change” value was -0.12. With RRIRSRPPRLPRPRPRPNHAPRP the “shrunken log2 fold change” value was -0.278. In the case of RRIRSRPPRLPRPRPRPNHFPRP, the “shrunken log2 fold change” value is reported as -0.21. RRIRSRPPRLPRPRPRPNHNPRP was tested, and the “shrunken log2 fold change” value was -0.784. With RRIRSRPPRLPRPRPRPNKVPRP the “shrunken log2 fold change” value was -0.283. RRIRSRPPRLPRPRPRPNLKPRP was tested, and the “shrunken log2 fold change” value was 0.087. For RRIRSRPPRLPRPRPRPNMYPRP, the “shrunken log2 fold change” value was -0.635. In the case of RRIRSRPPRLPRPRPRPNNCPRP, the “shrunken log2 fold change” value is reported as -0.186. For RRIRSRPPRLPRPRPRPNPRPRP, the “shrunken log2 fold change” value was 0.0955. RRIRSRPPRLPRPRPRPNPYPRP was tested, and the “shrunken log2 fold change” value was -0.558. With RRIRSRPPRLPRPRPRPNQGPRP the “shrunken log2 fold change” value was 0.153. In the case of RRIRSRPPRLPRPRPRPNQMPRP, the “shrunken log2 fold change” value is reported as 0.0306. With RRIRSRPPRLPRPRPRPNQRPRP the “shrunken log2 fold change” value was 0.0415. RRIRSRPPRLPRPRPRPNRWPRP was tested, and the “shrunken log2 fold change” value was -0.0554. For RRIRSRPPRLPRPRPRPNTMPRP, the “shrunken log2 fold change” value was -0.154. In the case of RRIRSRPPRLPRPRPRPNTQPRP, the “shrunken log2 fold change” value is reported as -0.274. RRIRSRPPRLPRPRPRPNWMPRP was tested, and the “shrunken log2 fold change” value was -0.0249. RRIRSRPPRLPRPRPRPPAGPRP was tested, and the “shrunken log2 fold change” value was 0.704. With RRIRSRPPRLPRPRPRPPARPRP the “shrunken log2 fold change” value was 0.876. In the case of RRIRSRPPRLPRPRPRPPCQPRP, the “shrunken log2 fold change” value is reported as -0.0943. With RRIRSRPPRLPRPRPRPPDAPRP the “shrunken log2 fold change” value was 0.415. RRIRSRPPRLPRPRPRPPEGPRP was tested, and the “shrunken log2 fold change” value was 0.704. RRIRSRPPRLPRPRPRPPFMPRP was tested, and the “shrunken log2 fold change” value was -0.0803. With RRIRSRPPRLPRPRPRPPFQPRP the “shrunken log2 fold change” value was 0.073. RRIRSRPPRLPRPRPRPPGHPRP was tested, and the “shrunken log2 fold change” value was 0.167. For RRIRSRPPRLPRPRPRPPKPPRP, the “shrunken log2 fold change” value was 0.149. For RRIRSRPPRLPRPRPRPPKWPRP, the “shrunken log2 fold change” value was 0.329. With RRIRSRPPRLPRPRPRPPLNPRP the “shrunken log2 fold change” value was 0.0261. With RRIRSRPPRLPRPRPRPPMDPRP the “shrunken log2 fold change” value was -0.0324. For RRIRSRPPRLPRPRPRPPMSPRP, the “shrunken log2 fold change” value was -0.0301. With RRIRSRPPRLPRPRPRPPPRPRP the “shrunken log2 fold change” value was 1.09. For RRIRSRPPRLPRPRPRPPSIPRP, the “shrunken log2 fold change” value was 0.2. With RRIRSRPPRLPRPRPRPPTGPRP the “shrunken log2 fold change” value was 0.369. With RRIRSRPPRLPRPRPRPPTKPRP the “shrunken log2 fold change” value was 0.0856. For RRIRSRPPRLPRPRPRPPVAPRP, the “shrunken log2 fold change” value was 0.403. RRIRSRPPRLPRPRPRPPVPPRP was tested, and the “shrunken log2 fold change” value was 0.378. RRIRSRPPRLPRPRPRPPWVPRP was tested, and the “shrunken log2 fold change” value was 0.433. With RRIRSRPPRLPRPRPRPPYKPRP the “shrunken log2 fold change” value was -0.465. With RRIRSRPPRLPRPRPRPQCRPRP the “shrunken log2 fold change” value was -0.0553. RRIRSRPPRLPRPRPRPQDWPRP was tested, and the “shrunken log2 fold change” value was -0.0642. With RRIRSRPPRLPRPRPRPQEPPRP the “shrunken log2 fold change” value was -0.284. With RRIRSRPPRLPRPRPRPQFSPRP the “shrunken log2 fold change” value was -0.152. For RRIRSRPPRLPRPRPRPQFWPRP, the “shrunken log2 fold change” value was 0.268. In the case of RRIRSRPPRLPRPRPRPQGQPRP, the “shrunken log2 fold change” value is reported as -0.154. In the case of RRIRSRPPRLPRPRPRPQIPPRP, the “shrunken log2 fold change” value is reported as -0.538. For RRIRSRPPRLPRPRPRPQIVPRP, the “shrunken log2 fold change” value was -0.32. In the case of RRIRSRPPRLPRPRPRPQIYPRP, the “shrunken log2 fold change” value is reported as -0.354. RRIRSRPPRLPRPRPRPQKMPRP was tested, and the “shrunken log2 fold change” value was -0.122. In the case of RRIRSRPPRLPRPRPRPQLCPRP, the “shrunken log2 fold change” value is reported as 0.0696. With RRIRSRPPRLPRPRPRPQLFPRP the “shrunken log2 fold change” value was 0.309. RRIRSRPPRLPRPRPRPQMKPRP was tested, and the “shrunken log2 fold change” value was -0.32. For RRIRSRPPRLPRPRPRPQNSPRP, the “shrunken log2 fold change” value was -0.207. RRIRSRPPRLPRPRPRPQSMPRP was tested, and the “shrunken log2 fold change” value was -0.384. RRIRSRPPRLPRPRPRPQSSPRP was tested, and the “shrunken log2 fold change” value was -0.192. RRIRSRPPRLPRPRPRPQTYPRP was tested, and the “shrunken log2 fold change” value was -0.16. With RRIRSRPPRLPRPRPRPQVEPRP the “shrunken log2 fold change” value was 0.0664. For RRIRSRPPRLPRPRPRPQWAPRP, the “shrunken log2 fold change” value was 0.0253. In the case of RRIRSRPPRLPRPRPRPQYGPRP, the “shrunken log2 fold change” value is reported as -0.118. With RRIRSRPPRLPRPRPRPQYPPRP the “shrunken log2 fold change” value was -0.157. With RRIRSRPPRLPRPRPRPRAHPRP the “shrunken log2 fold change” value was 0.409. For RRIRSRPPRLPRPRPRPRCTPRP, the “shrunken log2 fold change” value was 0.0731. RRIRSRPPRLPRPRPRPRCYPRP was tested, and the “shrunken log2 fold change” value was -0.107. In the case of RRIRSRPPRLPRPRPRPRDQPRP, the “shrunken log2 fold change” value is reported as -0.0856. In the case of RRIRSRPPRLPRPRPRPREAPRP, the “shrunken log2 fold change” value is reported as 0.587.
